{"source": "paper PMC12491784", "about": "“A Circular RNA Promotes Tumor Metastasis through Stabilizing MSI2 Protein in Pancreatic Ductal Adenocarcinoma”", "key": {"[1]": {"target": "T1, MSI2 (Musashi-2), recombinant (UniProt Q96DH6 1-328)", "T1 sequence (Q96DH6 whole entry)": "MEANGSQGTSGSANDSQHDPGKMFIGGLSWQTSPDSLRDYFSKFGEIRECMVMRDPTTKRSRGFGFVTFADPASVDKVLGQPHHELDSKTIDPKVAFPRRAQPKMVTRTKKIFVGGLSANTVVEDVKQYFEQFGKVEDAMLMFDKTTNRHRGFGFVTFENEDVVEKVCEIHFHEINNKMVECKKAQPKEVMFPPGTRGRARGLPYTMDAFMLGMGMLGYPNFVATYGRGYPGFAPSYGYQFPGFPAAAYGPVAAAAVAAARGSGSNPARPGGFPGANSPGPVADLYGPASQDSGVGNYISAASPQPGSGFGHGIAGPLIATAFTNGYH", "assay": "EMSA; EMSA: kit binding buffer (Beyotime GS009), 25 C 1 h, 5% native PAGE; RNA pull-down: 100 pmol biotinylated probe on streptavidin beads, 4 C 4 h; high-stringency", "settings": "protein: recombinant; tags: GST; label: 5' biotin"}, "[2]": {"target": "T1, MSI2 (Musashi-2), recombinant", "assay": "pull-down; EMSA: kit binding buffer (Beyotime GS009), 25 C 1 h, 5% native PAGE; RNA pull-down: 100 pmol biotinylated probe on streptavidin beads, 4 C 4 h; high-stringency", "settings": "protein: recombinant; tags: GST; label: 5' biotin"}}, "data": [{"binder": "UCCUAUCAAAUUAGUAAACCAAAG (ssRNA)", "note": "[P2 RNA probe]", "values": [{"measurement": "binding result", "setting": "[1]", "value": "binds"}]}, {"binder": "GUGUGCUCCAUAGUUUAUCAAAAG (ssRNA)", "note": "[P1 RNA probe]", "values": [{"measurement": "binding result", "setting": "[1]", "value": "binds"}]}, {"binder": "GUGUGCUCCAAACUUUAUCAAAAG (ssRNA)", "note": "[P1-mut RNA probe]", "values": [{"measurement": "binding result", "setting": "[2]", "value": "no binding"}]}, {"binder": "UCCUAUCAAAUAACUAAACCAAAG (ssRNA)", "note": "[P2-mut RNA probe]", "values": [{"measurement": "binding result", "setting": "[2]", "value": "no binding"}]}]}
